Data from patent publication US20110243929A1 (MEDLMMUNE, published 2011).
Where “and” joins values, the source holds several entries; their conditions need not be identical. Identical values can stand only once.

T1: cynomolgus ICOS (cynomolgus, UniProt A0A2K5TQR6 21-168)
T1 sequence: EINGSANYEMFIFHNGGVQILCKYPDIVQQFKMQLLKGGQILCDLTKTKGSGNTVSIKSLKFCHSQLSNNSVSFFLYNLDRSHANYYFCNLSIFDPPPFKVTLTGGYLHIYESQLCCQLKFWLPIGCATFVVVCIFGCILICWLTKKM

T2: human ICOS (human, UniProt Q9Y6W8 21-199)
T2 sequence: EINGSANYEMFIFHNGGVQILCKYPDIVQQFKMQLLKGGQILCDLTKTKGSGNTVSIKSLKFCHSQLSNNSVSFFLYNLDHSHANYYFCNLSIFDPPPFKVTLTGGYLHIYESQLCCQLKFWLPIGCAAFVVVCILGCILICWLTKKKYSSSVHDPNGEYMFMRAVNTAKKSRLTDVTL

T3: Cynomolgus FcγRIIa (Macaca fascicularis, UniProt A0A140HDN0)
T3 construct: extracellular domain
T3 sequence (extracellular domain): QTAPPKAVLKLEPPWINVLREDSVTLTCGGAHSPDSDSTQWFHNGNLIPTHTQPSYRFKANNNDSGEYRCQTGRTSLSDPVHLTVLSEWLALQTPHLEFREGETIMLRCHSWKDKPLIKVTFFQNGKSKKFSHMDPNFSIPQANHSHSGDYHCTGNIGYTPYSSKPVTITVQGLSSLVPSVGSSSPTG

T4: Cynomolgus FcγRIIb (Macaca fascicularis, UniProt A0A140HDP4)
T4 construct: extracellular domain
T4 sequence (extracellular domain): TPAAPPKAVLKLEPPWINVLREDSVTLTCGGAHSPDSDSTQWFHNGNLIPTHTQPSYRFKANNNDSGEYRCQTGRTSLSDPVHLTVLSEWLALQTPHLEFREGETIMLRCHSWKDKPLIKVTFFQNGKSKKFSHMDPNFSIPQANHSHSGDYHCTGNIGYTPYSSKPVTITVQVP

T5: Human FcγRIIb (human, UniProt P31994)
T5 construct: extracellular domain; Only the IC9G1-aFuc cell is filled
T5 sequence (extracellular domain, looked up): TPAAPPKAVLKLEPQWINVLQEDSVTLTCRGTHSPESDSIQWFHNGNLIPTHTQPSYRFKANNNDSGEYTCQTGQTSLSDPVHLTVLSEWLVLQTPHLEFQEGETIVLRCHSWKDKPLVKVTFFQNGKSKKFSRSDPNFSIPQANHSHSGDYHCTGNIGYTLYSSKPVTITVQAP

T6: Human FcγRIIa (human, UniProt P12318)
T6 construct: extracellular domain
T6 sequence (extracellular domain, looked up): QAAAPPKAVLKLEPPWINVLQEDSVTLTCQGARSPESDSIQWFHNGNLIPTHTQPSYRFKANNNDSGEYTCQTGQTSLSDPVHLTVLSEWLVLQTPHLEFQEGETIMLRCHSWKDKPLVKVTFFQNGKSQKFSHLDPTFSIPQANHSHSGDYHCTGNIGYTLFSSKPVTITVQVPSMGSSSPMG

B1: IC9G1-aFuc (afucosylated IC9G1 antibody composition) (antibody, human IgG1, kappa)
heavy: not shown
light: DIQMTQSPSSVSASVGDRVTITCRASQGISRLLAWYQQKPGKAPKLLIYVASSLQSGVPSRFSGSGSGTDFTLTISSLQPEDFATYYCQQANSFPWTFGQGTKVEIKRTVAAPSVFIFPPSDEQLKSGTASVVCLLNNFYPREAKVQWKVDNALQSGNSQESVTEQDSKDSTYSLSSTLTLSKADYEKHKVYACEVTHQGLSSPVTKSFNRGEC
modifications: chain 1 pos 305 (Asn297, EU numbering): complex N-glycoside-linked sugar chain without fucose on the reducing-end N-acetylglucosamine, written N
notes: Same polypeptides as IC9G1 (JMab-136 VH/VK, human IgHγ1 constant region, kappa); also called IG9G1-aFuc; ICG91-aFuc; copies: 2 + 2
B2: IC9G1 (anti ICOS antibody comprising JMab-136 VH and VL domains and the IgHγ1 constant region) (antibody, human IgG1, kappa)
heavy: not shown
light: B1 light
notes: The rest is a human IgHγ1 constant region (IgG1) and a human IgLK (kappa) constant region; copies: 2 + 2

Columns and labels:
[1] = biological target: T1, cynomolgus ICOS; test: cell-based or functional assay
[2] = biological target: T1, cynomolgus ICOS; test: cell-based or functional assay; remark: listed apart in the source
[3] = biological target: T1, cynomolgus ICOS; test: cell-based or functional assay; remark: listed apart in the source
[4] = biological target: T2, human ICOS; test: cell-based or functional assay
[5] = biological target: T3, Cynomolgus FcγRIIa; test: BIAcore 3000; IgG immobilized on CM5 chip, soluble FcγR extracellular domain injected; equilibrium 1:1 binding isotherm
Procedure: (§1) The measurements are performed according to standard protocols. Briefly, all IgGs are immobilized onto separate flow cells of two CM5 sensor chips using standard amino coupling chemistry as recommended by the manufacturer. […] Stock solutions of the recombinantly expressed extracellular domains of all FcγRs at either 4000 or 16000 nM are prepared and then serially diluted down to the desired concentrations using the instrument buffer (50 mM HBS buffer containing 0.01 M HEPES, pH 7.4, 0.15 M NaCl, 3 mM EDTA and 0.005% P-20). Duplicate injections of each concentration of FcγR ared then injected over all of the IgG surfaces at a flow rate of 5 μL/min. Binding data are collected for approximately […], followed by a 30 sec. pulse of 5 mM HCl between injections to regenerate the IgG surfaces. Several buffer injections are also interspersed throughout the injection series. One of these buffer injections is used along with the reference cell data to correct the raw data sets. After all binding data is collected, individual data sets are averaged for each y concentration, then fit to a 1:1 binding isotherm from which the equilibrium binding constants, KD, are derived. Analysis is carried out using the BIAevaluation software.

[6] = biological target: T4, Cynomolgus FcγRIIb; test: as above
Procedure: as §1

[7] = biological target: T7, cynomolgus FcγRIIIA, recombinantly expressed extracellular domain (cynomolgus, UniProt Q8SPW2 17-208); test: as above
T7 construct: extracellular domain; also called cynomolgus FcgRIIIa
Procedure: as §1

[8] = biological target: T5, Human FcγRIIb; test: as above
Procedure: as §1

[9] = biological target: T6, Human FcγRIIa; test: as above
Procedure: as §1

T7 sequence (Q8SPW2 17-208): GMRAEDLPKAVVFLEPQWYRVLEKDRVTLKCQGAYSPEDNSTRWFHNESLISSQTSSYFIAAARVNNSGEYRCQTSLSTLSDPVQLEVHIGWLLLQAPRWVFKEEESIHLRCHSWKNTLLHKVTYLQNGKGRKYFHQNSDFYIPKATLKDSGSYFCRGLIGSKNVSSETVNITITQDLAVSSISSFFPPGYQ

Binder | EC50 of ADCC (% cytotoxicity; human NK effector cells, isolated cynomolgus mesenteric lymph node T cells as targets) [1] | EC50 of ADCC (% cytotoxicity; human NK effector cells, isolated cynomolgus splenic T cells as targets) [2] | EC50 of ADCC activity (isolated human NK effector cells, 2:1, overnight) [3] | EC50 of ADCC activity (isolated human NK effector cells, 2:1, overnight) [4] | Kd [5] | Kd [6] | Kd [7] | Kd [8] | Kd [9]
B1 | 0.0024 µg/mL | 0.00205 µg/mL | 0.0146 nM and 0.0171 nM | 0.0082 nM | 3140 nM | 1950 nM | 21 nM | 14000 nM | 2010 nM
B2 | 0.0278 µg/mL | 0.0331 µg/mL | 0.236 nM and 0.198 nM | 0.0604 nM | 5280 nM | 2370 nM | 394 nM | – | 3310 nM
